How the values were obtained:
[1] = target: T1, PF07_0126 DLDext (PF3D7_0730300, AP2 domain transcription factor AP2-L, putative) (Plasmodium falciparum) (UniProt Q8IBF6); conditions: PBM; highest protein concentration obtained; buffer not given; scale: PBM E-score of the seed 8-mer
T1 sequence: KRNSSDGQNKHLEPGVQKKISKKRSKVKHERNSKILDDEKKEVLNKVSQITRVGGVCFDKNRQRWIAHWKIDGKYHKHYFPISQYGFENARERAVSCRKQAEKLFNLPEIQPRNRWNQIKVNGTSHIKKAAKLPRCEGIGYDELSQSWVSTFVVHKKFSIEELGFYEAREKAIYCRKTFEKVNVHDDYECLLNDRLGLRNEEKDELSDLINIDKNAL

[2] = target: T2, PF11_0091 D1 (PF3D7_1107800, AP2 domain transcription factor, putative) (Plasmodium falciparum) (UniProt Q8IIS4); conditions: PBM; highest protein concentration obtained; buffer not given; scale: PBM E-score of the seed 8-mer
T2 sequence: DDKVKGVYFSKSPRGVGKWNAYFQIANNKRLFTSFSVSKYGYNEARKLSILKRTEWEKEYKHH

[3] = target: T3, PF11_0442 D1ext (PF3D7_1143100, AP2 domain transcription factor AP2-O, putative) (Plasmodium falciparum) (UniProt Q8IHT5); conditions: PBM; highest protein concentration obtained; buffer not given; scale: PBM E-score of the seed 8-mer
T3 sequence: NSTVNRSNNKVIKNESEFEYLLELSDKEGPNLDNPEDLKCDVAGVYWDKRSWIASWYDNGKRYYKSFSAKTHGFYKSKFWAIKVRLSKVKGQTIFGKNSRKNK

[4] = target: T4, PF13_0235 D1ext (PF3D7_1342900, AP2 domain transcription factor, putative) (Plasmodium falciparum) (UniProt C0H5G5); conditions: PBM; highest protein concentration obtained; buffer not given; scale: PBM E-score of the seed 8-mer
T4 sequence: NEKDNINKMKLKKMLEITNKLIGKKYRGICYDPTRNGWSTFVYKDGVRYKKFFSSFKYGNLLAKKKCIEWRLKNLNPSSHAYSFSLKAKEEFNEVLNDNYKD

[5] = target: T5, MAL8P1.153 D1 (PF3D7_0802100, AP2 domain transcription factor, putative) (Plasmodium falciparum) (UniProt Q8IAM1); conditions: PBM; highest protein concentration obtained; buffer not given; scale: PBM E-score of the seed 8-mer
T5 sequence: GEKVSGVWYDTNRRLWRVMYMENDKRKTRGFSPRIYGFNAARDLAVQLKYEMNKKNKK

[6] = target: T6, PFF0200c DLD (PF3D7_0604100, AP2 domain transcription factor) (Plasmodium falciparum) (UniProt C6KSN9); conditions: PBM; highest protein concentration obtained; buffer not given; scale: PBM E-score of the seed 8-mer
T6 sequence: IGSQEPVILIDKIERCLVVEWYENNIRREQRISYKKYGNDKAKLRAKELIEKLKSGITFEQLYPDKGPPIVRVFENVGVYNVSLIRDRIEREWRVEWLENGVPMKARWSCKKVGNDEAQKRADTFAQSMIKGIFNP

[7] = target: T7, PFD0985w D1 (ApiAP2) (Plasmodium falciparum) (UniProt Q8I1N6); conditions: PBM; highest protein concentration obtained; buffer not given; scale: PBM E-score of the seed 8-mer
T7 sequence: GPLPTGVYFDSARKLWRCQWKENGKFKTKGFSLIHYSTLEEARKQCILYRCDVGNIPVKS

[8] = target: T8, PF10_0075 D2ext (PF3D7_1007700, AP2 domain transcription factor AP2-I) (Plasmodium falciparum) (UniProt Q8IJW6); conditions: PBM; highest protein concentration obtained; buffer not given; scale: PBM E-score of the seed 8-mer
T8 sequence: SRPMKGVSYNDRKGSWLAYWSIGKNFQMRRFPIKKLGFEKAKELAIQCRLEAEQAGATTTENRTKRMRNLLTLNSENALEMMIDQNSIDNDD

[9] = target: T9, PFE0840c D2 (PF3D7_0516800, AP2 domain transcription factor AP2-O2, putative) (Plasmodium falciparum) (UniProt Q8I3U0); conditions: PBM; highest protein concentration obtained; buffer not given; scale: PBM E-score of the seed 8-mer
T9 sequence: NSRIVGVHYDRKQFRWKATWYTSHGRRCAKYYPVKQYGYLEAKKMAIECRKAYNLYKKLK

[10] = target: T10, PF13_0026 D1 (PF3D7_1305200, AP2 domain transcription factor, putative) (Plasmodium falciparum) (UniProt Q8IER4); conditions: PBM; highest protein concentration obtained; buffer not given; scale: PBM E-score of the seed 8-mer
T10 sequence: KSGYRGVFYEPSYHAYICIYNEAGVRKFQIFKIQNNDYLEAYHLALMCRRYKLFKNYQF

[11] = target: T11, PF14_0079 D1 (PF3D7_1408200, AP2 domain transcription factor AP2-G2, putative) (Plasmodium falciparum) (UniProt Q8IM14); conditions: PBM; highest protein concentration obtained; buffer not given; scale: PBM E-score of the seed 8-mer
T11 sequence: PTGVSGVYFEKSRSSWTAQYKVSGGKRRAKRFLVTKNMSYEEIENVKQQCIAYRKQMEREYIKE

[12] = target: T12, PFL1900w D1ext (PF3D7_1239200, AP2 domain transcription factor, putative) (Plasmodium falciparum) (UniProt Q8I531); conditions: PBM; highest protein concentration obtained; buffer not given; scale: PBM E-score of the seed 8-mer
T12 sequence: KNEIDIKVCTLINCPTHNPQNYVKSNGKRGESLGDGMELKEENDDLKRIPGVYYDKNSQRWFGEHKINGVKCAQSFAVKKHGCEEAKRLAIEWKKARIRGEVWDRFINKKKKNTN

[13] = target: T13, PFF0670w D1 (PF3D7_0613800, AP2 domain transcription factor, putative) (Plasmodium falciparum) (UniProt C6KSY0); conditions: PBM; highest protein concentration obtained; buffer not given; scale: PBM E-score of the seed 8-mer
T13 sequence: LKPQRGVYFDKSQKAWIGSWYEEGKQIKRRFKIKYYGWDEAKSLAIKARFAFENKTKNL

[14] = target: T14, PFD0985w_D2 (AP2 domain 2) (Plasmodium falciparum, UniProt Q8I1N6 3268-3321); experiment: EMSA; poly(dI-dC); LightShift EMSA buffer, 2.5% glycerol, 5 mM MgCl2, 10 mM EDTA, 50 mM KCl, 0.05% NP-40, 50 ng/uL poly(dI-dC), 10 fmol biotin probe, 50 or 250x competitor, room temperature 20 min; conditions: protein: recombinant; tags: N-terminal GST (pGEX-4T1); label: 5' biotin (probe); blunt
T14 sequence: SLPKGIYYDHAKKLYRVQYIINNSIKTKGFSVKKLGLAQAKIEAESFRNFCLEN

[15] = target: T14, PFD0985w_D2 (AP2 domain 2); experiment: EMSA; poly(dI-dC); bound equally well as primary motif; LightShift EMSA buffer, 2.5% glycerol, 5 mM MgCl2, 10 mM EDTA, 50 mM KCl, 0.05% NP-40, 50 ng/uL poly(dI-dC), 10 fmol biotin probe, 50 or 250x competitor, room temperature 20 min; conditions: protein: recombinant; tags: N-terminal GST (pGEX-4T1); label: 5' biotin (probe); blunt
[16] = target: T15, PFL1900w DLD (PF3D7_1239200, AP2 domain transcription factor, putative) (Plasmodium falciparum, UniProt Q8I531 2149-2347); experiment: EMSA; 5 mM MgCl2 with 10 mM EDTA; LightShift buffer, 2.5% glycerol, 50 mM KCl, 0.05% NP-40, 50 ng/uL poly(dI-dC); room temperature, 20 min; conditions: tags: N-terminal GST (pGEX-4T1), kept; label: 5' biotin
T15 sequence: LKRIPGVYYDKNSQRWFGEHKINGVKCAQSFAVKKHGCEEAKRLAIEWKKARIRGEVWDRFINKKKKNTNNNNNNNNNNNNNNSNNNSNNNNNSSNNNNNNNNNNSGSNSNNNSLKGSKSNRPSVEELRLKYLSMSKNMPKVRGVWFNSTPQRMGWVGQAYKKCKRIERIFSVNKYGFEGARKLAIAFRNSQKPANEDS

[17] = target: T16, PF13_0235 D1ext (PF3D7_1342900, AP2 domain transcription factor, putative) (Plasmodium falciparum, UniProt C0H5G5 2339-2440); experiment: as above; conditions: tags: N-terminal GST (pGEX-4T1), kept; label: 5' biotin
T16 sequence: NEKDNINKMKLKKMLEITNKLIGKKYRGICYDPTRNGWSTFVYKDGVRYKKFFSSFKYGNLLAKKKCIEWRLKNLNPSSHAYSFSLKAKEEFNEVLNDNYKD

[18] = target: T17, PF13_0267 D1 (PF3D7_1350900, AP2 domain transcription factor AP2-O4, putative) (Plasmodium falciparum, UniProt A0A5K1K8Z4 400-521); experiment: as above; conditions: tags: N-terminal GST (pGEX-4T1), kept; label: 5' biotin
T17 sequence: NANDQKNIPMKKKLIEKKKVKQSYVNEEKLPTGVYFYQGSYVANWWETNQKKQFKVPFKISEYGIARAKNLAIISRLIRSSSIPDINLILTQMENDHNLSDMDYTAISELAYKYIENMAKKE

[19] = target: PF11_0091 D1 (PF3D7_1107800, AP2 domain transcription factor, putative) (Plasmodium falciparum, UniProt Q8IIS4 1486-1548); experiment: as above; conditions: tags: N-terminal GST (pGEX-4T1), kept; label: 5' biotin

Molecule: AATTTCC (double strand) [PF07_0126_DLD primary motif]
- binding signal [1]: 0.467

Molecule: AGCATAC (double strand) [PF11_0091 primary motif]
- binding signal [2]: 0.472

Molecule: AGCTAGCT (double strand) [PF11_0442 primary motif]
- binding signal [3]: 0.478

Molecule: AWGGKMCC / GGKMCCWT [PF13_0235_D1 Secondary motif 1]
- binding signal [4]: > 0.45

Molecule: CACACACA (double strand) [MAL8P1.153 primary motif]
- binding signal [5]: 0.477

Molecule: GCCCCGC (double strand) [PF13_0235_D1 primary motif]
- binding signal [4]: 0.494

Molecule: GTGCAC (double strand) [PFF0200c_DLD primary motif]
- binding signal [6]: 0.481

Molecule: GTGTGTG (double strand) [PFD0985w_D1 primary motif]
- binding signal [7]: 0.497

Molecule: TCTTGCC (double strand) [PF10_0075_D2 primary motif]
- binding signal [8]: 0.468

Molecule: TGACATCA (double strand) [PFE0840c_D2 primary motif]
- binding signal [9]: 0.472

Molecule: TGCACACAC (double strand) [PF13_0026 primary motif]
- binding signal [10]: 0.495

Molecule: TGCNACCA (double strand) [PF14_0079 primary motif]
- binding signal [11]: 0.487

Molecule: TTCTACA (double strand) [PFL1900w_D1 primary motif]
- binding signal [12]: 0.46

Molecule: WTAAGCC (double strand) [PFF0670w_D1 primary motif]
- binding signal [13]: 0.465

B1: PFD0985w_D2-1° (dsDNA)
DNA 1: AATATTATAATAGTCGTAGCCATCAATGTGTAACACATGGTAATATAGATTTTCGTTTATATT
DNA 2: AATATAAACGAAAATCTATATTACCATGTGTTACACATTGATGGCTACGACTATTATAATATT
- binding result [14]: binds

B2: PFD0985w_D2-2° (dsDNA)
DNA 1: AATATTATAATAGTCGTAGCCATCAATCCACACACCATGGTAATATAGATTTTCGTTTATATT
DNA 2: AATATAAACGAAAATCTATATTACCATGGTGTGTGGATTGATGGCTACGACTATTATAATATT
- binding result [15]: binds

B3: PFL1900w_DLD-1 (motif rank) (dsDNA)
DNA 1: AATATTATAATAGTCGTAGCCATCAATTCTACAAAATGGTAATATAGATTTTCGTTTATATT
DNA 2: AATATAAACGAAAATCTATATTACCATTTTGTAGAATTGATGGCTACGACTATTATAATATT
- binding result [16]: binds

B4: PFL1900w_DLD-2 (motif rank) (dsDNA)
DNA 1: AATATTATAATAGTCGTAGCCATCAATACGACATCATGGTAATATAGATTTTCGTTTATATT
DNA 2: AATATAAACGAAAATCTATATTACCATGATGTCGTATTGATGGCTACGACTATTATAATATT
- binding result [16]: binds

B5: hsp86 (dsDNA)
DNA 1: TTTTAAAAAAAAAAAAAAAGCCCCGCGGAAAGGGGCCATTGGATATATATTTAGTATTCC
DNA 2: GGAATACTAAATATATATCCAATGGCCCCTTTCCGCGGGGCTTTTTTTTTTTTTTTAAAA
- binding result [17]: binds

B6: hsp86-MUT3 (dsDNA)
DNA 1: TTTTAAAAAAAAAAAAAAAGTATAGCGGAAATATACCATTGGATATATATTTAGTATTCC
DNA 2: GGAATACTAAATATATATCCAATGGTATATTTCCGCTATACTTTTTTTTTTTTTTTAAAA
- binding result [17]: no binding

B7: pfc0975c (dsDNA)
DNA 1: TTATGATGATACATAAATTACTGATCTTTCTAGGTGCGCTGCTACCATTATCGTGAATAA
DNA 2: TTATTCACGATAATGGTAGCAGCGCACCTAGAAAGATCAGTAATTTATGTATCATCATAA
- binding result [18]: binds

B8: pfc0975c-MUT (dsDNA)
DNA 1: TTATGATGATACATAAATTACTGATCTTTCAAAGTGCGCTGCTACCATTATCGTGAATAA
DNA 2: TTATTCACGATAATGGTAGCAGCGCACTTTGAAAGATCAGTAATTTATGTATCATCATAA
- binding result [18]: no binding

B9: gbp130 (dsDNA)
DNA 1: AAGCAAATAAGATATTCCAAAAAAAAGTATTCTAATGTGTACTAATAAACCTTTATATAA
DNA 2: TTATATAAAGGTTTATTAGTACACATTAGAATACTTTTTTTTGGAATATCTTATTTGCTT
- binding result [19]: binds

Reference: publication PMC2965767, “Identification and Genome-Wide Prediction of DNA Binding Specificities for the ApiAP2 Family of Regulators from the Malaria Parasite”
